Data as given in publication PMC8626535.

Tests used:
NKp30-Fc (human) = NKp30-Fc (human) (UniProt O14931); assay: BLI
CC3-Fc (human) = CC3-Fc (human) (UniProt O14931); assay: BLI

Kd (NKp30-Fc (human)) [nM]	Kd (CC3-Fc (human)) [nM]	Molecule
1300	–	Soluble monomeric B7H6-His (from UniProt Q68D85 25-262) (domain or fragment)
–	680	Soluble monomeric B7H6-His (domain or fragment) DLKVEMMAGGTQITPLNDNVTIFCNIFYSQPLNITSMGITWFWKSLTFDKEVKVFEFFGDHQEAFRPGAIVSPWRLKSGDASLRLPGIQLEEAGEYRCEVVVTPLKAQGTVQLEVVASPASRLLLDQVGMKENEDKYMCESSGFYPEAINITWEKQTQKFPHPIEISEDVITGPTIKNMDGTFNVTSCLKLNSSQEDPGTVYQCVVRHASLHTPLRSNFTLTAARHSLSETEKTDNFS
